The values that follow come from article PMC11326238 (bioRxiv, 2024).

Series [1] concerns the target recombinant AMY3 (α-amylase3) lacking the chloroplast transit peptide, purified (Arabidopsis) (UniProt Q94A41). The series is described as follows: SEC-MALS + other: SAXS. (In general: Size exclusion chromatography separates by hydrodynamic size, large species first.)
Series [2] concerns the molecule itself. The series is described as follows: cross-linking.

As to “recombinant BAM9 (β-amylase9), purified (from UniProt Q8VYW2 1-536) (natural protein)”, the stoichiometry N (BAM9 per AMY3 (heterodimer)) in series [1] is 1.

B1: recombinant AMY3 (α-amylase3) lacking the chloroplast transit peptide, purified (enzyme, Arabidopsis, UniProt Q94A41 56-887, looked up)
chain: SMNKSPVAIRATSSDTAVVETAQSDDVIFKEIFPVQRIEKAEGKIYVRLKEVKEKNWELSVGCSIPGKWILHWGVSYVGDTGSEWDQPPEDMRPPGSIAIKDYAIETPLKKLSEGDSFFEVAINLNLESSVAALNFVLKDEETGAWYQHKGRDFKVPLVDDVPDNGNLIGAKKGFGALGQLSNIPLKQDKSSAETDSIEERKGLQEFYEEMPISKRVADDNSVSVTARKCPETSKNIVSIETDLPGDVTVHWGVCKNGTKKWEIPSEPYPEETSLFKNKALRTRLQRKDDGNGSFGLFSLDGKLEGLCFVLKLNENTWLNYRGEDFYVPFLTSSSSPVETEAAQVSKPKRKTDKEVSASGFTKEIITEIRNLAIDISSHKNQKTNVKEVQENILQEIEKLAAEAYSIFRSTTPAFSEEGVLEAEADKPDIKISSGTGSGFEILCQGFNWESNKSGRWYLELQEKADELASLGFTVLWLPPPTESVSPEGYMPKDLYNLNSRYGTIDELKDTVKKFHKVGIKVLGDAVLNHRCAHFKNQNGVWNLFGGRLNWDDRAVVADDPHFQGRGNKSSGDNFHAAPNIDHSQDFVRKDIKEWLCWMMEEVGYDGWRLDFVRGFWGGYVKDYMDASKPYFAVGEYWDSLSYTYGEMDYNQDAHRQRIVDWINATSGAAGAFDVTTKGILHTALQKCEYWRLSDPKGKPPGVVGWWPSRAVTFIENHDTGSTQGHWRFPEGKEMQGYAYILTHPGTPAVFFDHIFSDYHSEIAALLSLRNRQKLHCRSEVNIDKSERDVYAAIIDEKVAMKIGPGHYEPPNGSQNWSVAVEGRDYKVWETS
Regarding B1, the “stoichiometry N” value in series [2] turned out to be 2.

For orientation: stoichiometry N means the number of molecules, sites or subunits per partner or assembly.
